Assay [1] has as its target Midgut brush border membranes of Helicoverpa armigera larvae. The assay is described as follows: 125I-labelled HaSV particles with midgut brush border membranes preincubated 1 h with unlabelled HaSV (self-competition).
Assay [2] shares this target. Put plainly: 125I-labelled HaSV particles (103,000 cpm) incubated 1 h with midgut brush border membranes, pelleted, washed three times, gamma counting.
The target is the same in assay [3]. The assay is described as follows: 125I-labelled HaSV particles with midgut brush border membranes boiled before the incubation (control).

On to “Helicoverpa armigera stunt virus (HaSV) particles (from UniProt Q82462 1-647)”, for which the cpm remaining with the membranes after washing in assay [1] was 2100 cpm; in assay [2], 8500 cpm; in assay [3], 1700 cpm.

The values above are taken from patent US20050268353A1.
